Consider four molecules from patent US20210155689A1 (SHANGHAI PHARMAEXPLORER, published 2021).

Where a chain is given by its changes, count along the chain named.

The target in assay [1] is T1, human LAG-3 on cells (HEK293-hLAG-3 stable cell line) (human, UniProt P18627 23-525).
T1 sequence: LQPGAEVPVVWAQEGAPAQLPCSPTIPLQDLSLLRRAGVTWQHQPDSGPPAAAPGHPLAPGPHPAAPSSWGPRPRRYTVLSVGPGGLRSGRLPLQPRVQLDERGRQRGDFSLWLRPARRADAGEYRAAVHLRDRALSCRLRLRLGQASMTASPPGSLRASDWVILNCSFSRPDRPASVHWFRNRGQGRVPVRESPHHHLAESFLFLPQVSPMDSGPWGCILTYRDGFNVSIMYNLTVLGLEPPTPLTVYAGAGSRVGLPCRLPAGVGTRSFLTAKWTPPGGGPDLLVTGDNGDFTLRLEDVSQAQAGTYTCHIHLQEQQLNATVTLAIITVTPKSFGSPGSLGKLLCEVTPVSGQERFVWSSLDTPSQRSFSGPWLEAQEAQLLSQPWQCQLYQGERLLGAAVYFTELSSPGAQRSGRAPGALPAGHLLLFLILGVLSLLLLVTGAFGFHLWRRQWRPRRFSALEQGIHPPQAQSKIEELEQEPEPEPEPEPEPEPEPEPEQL
Description: FACS, HEK293-hLAG-3, antibody 0.000 nM. The source says:
The pIRES plasmid with the monkey-derived full-length gene was transfected into the HEK293 cell line to construct a HEK293 stable cell line containing monkey LAG-3 (herein referred to as HEK293-cLAG-3 stable cell line). The HEK293-hLAG-3 stable cell line and HEK293-cLAG-3 stable cell line were expanded in a T-75 cell culture flask to a 90% confluence. The medium was aspirated, and the cells were washed with HBSS (Hanks' Balanced Salt Solution) 1-2 times, then treated with a enzyme-free cell dissociation fluid (Versene solution: Life technology) and the cells were collected. The cells were washed with HBSS buffer for 1-2 times. After counted, the cells were diluted with HBSS to 1-2×10⁶ cells per ml, added with 1% goat serum blocking solution, incubated on ice for 20-30 minutes, and then washed with HBSS for 2 times by centrifugation. The collected cells were suspended in the FACS buffer (HBSS+1% BSA) to 2×10⁶ cells/ml, added as 100 microliters per well to a 96-well FACS reaction plate, added with 100 microliters per well of the antibody sample to be tested, incubated on ice for 1-2 hours. The plate was washed twice with the FACS buffer by centrifugation, added with 100 microliters of fluorescent (Alexa 488)-labeled secondary antibodies per well, and incubated on ice for 0.5-1.0 hours. The plate was washed 2-3 times with FACS buffer by centrifugation, added with 100 μl fixative solution (4% Paraformaldehyde) per well to suspend the cells. 5-10 minutes later, it was washed 1-2 times with FACS buffer by centrifugation. The cells were suspended with 100 microliters of FACS buffer, FACS (FACSCalibur, BD) was used for detection and the results were analyzed.

For assay [2], the target named is T2, LAG-3-hFc protein (human LAG-3 extracellular region with hFc tag) (human, UniProt P18627 23-450).
T2 construct: also called hLAG-3-hFc; LAG-3 protein; not shown: human IgG Fc fragment (hFc) of the pCpC vector
T2 sequence: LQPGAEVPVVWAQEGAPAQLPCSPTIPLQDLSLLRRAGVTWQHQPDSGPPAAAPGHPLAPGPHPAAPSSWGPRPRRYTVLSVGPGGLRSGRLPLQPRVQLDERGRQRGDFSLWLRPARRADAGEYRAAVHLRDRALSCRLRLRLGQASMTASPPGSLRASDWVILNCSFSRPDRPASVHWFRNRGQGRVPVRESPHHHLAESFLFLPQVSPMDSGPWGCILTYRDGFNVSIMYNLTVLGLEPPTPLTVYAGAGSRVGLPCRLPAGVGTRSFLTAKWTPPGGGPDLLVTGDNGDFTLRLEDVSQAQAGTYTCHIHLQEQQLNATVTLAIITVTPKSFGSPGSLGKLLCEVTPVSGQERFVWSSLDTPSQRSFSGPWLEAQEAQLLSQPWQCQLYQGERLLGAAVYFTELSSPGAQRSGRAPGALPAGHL
The experiment in a line: FACS, inhibition of LAG-3-hFc binding to MHC II on Raji cells, antibody 7.407 nM. As for the experimental part:
The FACS reaction plate incubating the Raji cells was centrifuged to discard the supernatant. The above mixture was added as 100 μl per well to Raji cells and incubated on ice for 1-2 hours. The plate was washed twice with blocking solution (PBS, 2% fetal bovine serum) by centrifugation, added with 100 microliters of fluorescent (Alexa 488)-labeled secondary antibodies per well, and incubated on ice for 1.0 hours. The plate was washed 2-3 times by centrifugation with blocking solution (PBS, 2% fetal bovine serum), added with 100 microliters of PBS per well to suspend cells, and detected using FACS (FACS Calibur, BD) and the results were analyzed. Wherein, the IgG control was murine IgG, and the data in the table is the inhibition rate (%).
In general terms: In flow cytometry, cells or beads pass a laser one at a time.

B1: 105F1E10 mouse-human chimeric antibody (antibody, V domains shown)
VH: EVQLQQSGPELVKPGASVKMSCRASGYTFTDFKMHWMKQSHGKSLEWIGYIAPNNGGTAYNQKFRGKATLTVNESSNTAYMELRSLTSEDSAVYYCVDWDDVDYWGQGTTLTVSS
VL: DIKMTQSPSSMYASLGERVTITCKASQDINSYLSWFQQKSGKSPKTLIYRANRLVDGVPSRFSGSGSGQDYSLTISSLEYEDMGIYYCLQYVEFPLTFGAGTKLELK
notes: also called mAb009-105F1E10
Molecule B1 showed a Mean fluorescence intensity in assay [1] of 2.6. Further, in assay [2], the “Inhibition rate (%)” value was determined as 67%.

B2: 405B8H3 mouse-human chimeric antibody (antibody, V domains shown)
VH: QVQLQQSGAELVRPGASVTLSCKASGYTFTDYEMHWVKQTPVHGLEWIGATDPETGNSAYNQKFKGKAIMTADKSSSTAYMELRSLTSEDSAVYYCISTGWNDWGQGTSLTVSS
VL: B1 VL with S40P, N52D, V55L, E81G, V92D, L96Y, A100G, L106I
notes: also called mAb103-405B8H3
On to B2, for which, in assay [1], the Mean fluorescence intensity is 2.8. The “Inhibition rate (%)” value in assay [2] is 95.1%.

B3: 409B11E12 mouse-human chimeric antibody (antibody, V domains shown)
VH: B2 VH with P41T, G56S, N57Y, M70L, S98A
VL: B1 VL with I2L, S40P, V55L, V92D, L96Y, A100G, L106I
notes: also called mAb104-409B11E12
Molecule B3 had a Mean fluorescence intensity in assay [1] of 2.8. The “Inhibition rate (%)” value in assay [2] is 95.1%.

B4: 409D4E10 mouse-human chimeric antibody (antibody, V domains shown)
VH: B2 VH with Y27N, G56D, S58T, M70L, A72T, S98T, T99S
VL: B1 VL with S40P, V55L, V92N, L96Y, A100G, L106I
notes: also called mAb112-409D4E10
In assay [1], B4 had a Mean fluorescence intensity of 3. The “Inhibition rate (%)” value in assay [2] amounted to 94.7%.
